Common to all, as to experiment: ForteBio BLI, Fab KD, monovalent
In general terms: In BLI a coated tip is dipped into the sample, and binding shifts an interference pattern.

The target of one assay is T1, Human TIGIT-His (human, UniProt Q495A1 22-141, biotinylated in the ForteBio Fab assay).
T1 construct: bought (Creative Biomart); also called Biotinylated Human TIGIT HIS; TIGIT-His monomer; not shown: His tag
T1 sequence (looked up): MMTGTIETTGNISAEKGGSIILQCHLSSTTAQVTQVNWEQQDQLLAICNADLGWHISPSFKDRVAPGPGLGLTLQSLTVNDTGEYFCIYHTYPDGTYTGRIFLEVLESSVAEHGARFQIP

Another assay addresses T2, Mouse TIGIT-Fc (mouse, UniProt P86176 29-148, limits assumed).
T2 construct: not shown: Fc part
T2 sequence (looked up): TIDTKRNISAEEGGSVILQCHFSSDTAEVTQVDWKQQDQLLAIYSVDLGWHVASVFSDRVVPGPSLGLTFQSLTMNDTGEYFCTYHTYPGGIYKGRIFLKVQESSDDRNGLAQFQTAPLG

For a further assay, the target named is T3, Cyno TIGIT-Fc (cynomolgus, UniProt A0A7N9I9V4 89-209).
T3 construct: not shown: Fc part
T3 sequence (A0A7N9I9V4 entry or part of it): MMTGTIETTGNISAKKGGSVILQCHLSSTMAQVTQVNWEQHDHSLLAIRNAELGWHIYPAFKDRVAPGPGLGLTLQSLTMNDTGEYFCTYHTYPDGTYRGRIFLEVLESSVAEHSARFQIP

B1: Fab of anti-TIGIT clone 29523 (Fab, V domains shown)
VH: EVQLVESGGGVVQPGRSLRLSCAASGFTFGSYYMHWVRQAPGKGLEWVAVIWPDGSNKLYADSVKGRFTISRDNSKNTLYLQMNSLRAEDTALYYCAKPVPKSRALDVWGQGTMVTVSS
VL: DIQLTQSPSSVSASVGDRVTITCRASQGISSWLAWYQQKPGKAPKLLIYGASSLQSGVPSRFSGSGSGTDFTLTISSLQPEDFATYYCQQAFYLPWTFGGGTKVEIK
One may read the Kd as the constant that tells how readily two partners part at equilibrium. B1: the values for the Kd with Human TIGIT-His, with Mouse TIGIT-Fc and with Cyno TIGIT-Fc were 3.84 nM, 18.9 nM and 27.9 nM, respectively.

B2: Fab of anti-TIGIT clone 29520 (Fab, V domains shown)
VH: QVQLVESGGGLVQPGRSLRLSCAASGFTFRDYAMHWVRQAPGKGLEWVSGITWNSGLIGYADSVKGRFTISRDNAKNSLYLQMNSLRAEDTALYYCAKPVPRLRGLDVWGQGTMVTVSS
VL: DIQLTQSPSSVSASVGDRVTITCRASQGISSWLAWYQQKPGKAPKLLIYGASSLQSGVPSRFSGSGSGTDFTLTISSLQPEDFATYYCQQAFYLPWTFGGGTKVEIK
Take B2: the figures for the Kd with Human TIGIT-His, with Mouse TIGIT-Fc and with Cyno TIGIT-Fc were 1.31 nM, 1.95 nM and 2.68 nM, respectively.

B3: Fab of anti-TIGIT clone 29527 (Fab, V domains shown)
VH: QVQLVESGGGVVQPGRSLRLSCAASGFTFSSSYMHWVRQAPGKGLEWVAVIGADGSNKYYADSVEGRFTISRDNSKNTLYLQMNSLRAEDTALYYCAKPVPRRRGLDVWGQGTMVTVSS
VL: DIQLTQSPSSVSASVGDRVTITCRASQGISSWLAWYQQKPGKAPKLLIYGASSLQSGVPSRFSGSGSGTDFTLTISSLQPEDFATYYCQQAFYLPWTFGGGTKVEIK
Take B3: the values for the equilibrium dissociation constant (Kd) with Human TIGIT-His, in the assay with Mouse TIGIT-Fc and with Cyno TIGIT-Fc were 1.33 nM, 20.2 nM and 17.6 nM, respectively.

B4: Fab of anti-TIGIT clone 26493 (Fab, V domains shown)
VH: EVQLVESGGGLVQPGRSLRLSCAASGFTFGDYAMHWVRQAPGKGLEWVSGITWNSGSIGYADSVKGRFTISRDNAKNSLYLQMNSLRAEDTALYYCAKPVPKSRGLDVWGQGTMVTVSS
VL: DIQLTQSPSSVSASVGDRVTITCRASQGISSWLAWYQQKPGKAPKLLIYGASSLQSGVPSRFSGSGSGTDFTLTISSLQPEDFATYYCQQAFYLPWTFGGGTKVEIK
Consider B4, for which the Kd with Human TIGIT-His turned out to be 40.6 nM; with Mouse TIGIT-Fc it was 26.7 nM. Moreover, in the assay with Cyno TIGIT-Fc, the binding result is reported as “no binding”.

B5: Fab of anti-TIGIT clone 29478 (Fab, V domains shown)
VH: EVQLVESGGGVVQPGRSLRLSCAASGFTFESYGMVWVRQAPGKGLEWVASILYDGSNRYYADSVKGRFTVSRDNSKNTLYLQMNSLRAEDTAVYYCARVSYYYDSVELRWAEYFQHWGQGTLVTVSS
VL: EIVLTQSPATLSLSPGERATLSCRASQSVSSYLAWYQQKPGQAPRLLIYDASKRATGIPARFSGSGSGTDFTLTISSLEPEDFAVYYCQQVHNFPLTFGGGTKVEIK
Regarding B5, the equilibrium dissociation constant (Kd) was found to be 0.703 nM with Human TIGIT-His, 91.8 nM in the assay with Mouse TIGIT-Fc and 1.26 nM with Cyno TIGIT-Fc.

B6: Fab of anti-TIGIT clone 26432 (Fab, V domains shown)
VH: QVQLVQSGAEVKKPGSSVKVSCKASGGTFSSYAISWVRQAPGQGLEWMGGIIPIFGTANYAQKFQGRVTITADESTSTAYMELSSLRSEDTAVYYCAREAQSYRVPFDIWGQGTMVTVSS
VL: EIVMTQSPATLSVSPGERATLSCRASQSVSSNLAWYQQKPGQAPRLLIYGASTRATGIPARFSGSGSGTEFTLTISSLQSEDFAVYYCQQYAIWPPFTFGGGTKVEIK
With B6, binding in the assay with Human TIGIT-His was characterised by a dissociation constant (Kd) of 13.1 nM. For the same molecule, the binding result in the assay with Mouse TIGIT-Fc and in the assay with Cyno TIGIT-Fc was “no binding” throughout.

B7: Fab of anti-TIGIT clone 29513 (Fab, V domains shown)
VH: QVQLVQSGAEVKKPGSSVKVSCKASGGTFQNYAISWVRQAPGQGLEWMGVIVPIFGTANYAQKFQGRVTVTADESTSTAYMELSSLRSEDTAVYYCARLHLGQKAYYGMDVWGQGTTVTVSS
VL: DIQMTQSPSSLSASVGDRVTITCRASQSISSYLNWYQQKPGKAPKLLIYAASSLQSGVPSRFSGSGSGTDFTLTISSLQPEDFATYYCQQRYVFPPTFGGGTKVEIK
Consider B7, for which the equilibrium dissociation constant (Kd) in the assay with Human TIGIT-His was 0.774 nM; with Mouse TIGIT-Fc, 85.5 nM; with Cyno TIGIT-Fc, 9.56 nM.

B8: Fab of anti-TIGIT clone 29494 (Fab, V domains shown)
VH: QVQLQESGPGLVKPSETLSLTCTVSGGSISSGSYYLAWIRQPPGKGLEWIGSIFRSGSTYYNPSLESRVTISVDTSKNQFSLKLSSVTAADTAVYYCAIEGANFKDFGYVAFDIWGQGTMVTVSS
VL: EIVMTQSPATLSVSPGERATLSCRASQSVSSNLAWYQQKPGQAPRLLIYGASTRATGIPARFSGSGSGTEFTLTISSLQSEDFAVYYCQQSPPWPRTFGGGTKVEIK
Take B8: the figures for the Kd in the assay with Human TIGIT-His, with Mouse TIGIT-Fc and with Cyno TIGIT-Fc were 1.66 nM, 53.6 nM and 18.6 nM, respectively.

B9: Fab of anti-TIGIT clone 29499 (Fab, V domains shown)
VH: QLQLQESGPGLVKPSETLSLTCTVSGGSISSSRYYWAWIRQPPGKGLEWIGSIGTSGSTYYNPSLKSRVTISVDTSKNQFSLKLSSVTATDTAVYYCAIEGANFRDFGYVAFDIWGQGTMVTVSS
VL: EIVMTQSPATLSVSPGERATLSCRASQSVSSNLAWYQQKPGQAPRLLIYGASTRATGIPARFSGSGSGTEFTLTISSLQSEDFAVYYCQQSPPWPRTFGGGTKVEIK
In the case of B9, the Kd is 1.66 nM with Human TIGIT-His, 25.5 nM with Mouse TIGIT-Fc and 14.5 nM with Cyno TIGIT-Fc.
